Values of other authors, collected in PMC3982939.

What was measured:
guanylin (Homo sapiens) = guanylin (Homo sapiens) (UniProt Q02747)
[1] = molecular target: uroguanylin (Homo sapiens) (UniProt Q16661)

Kd (guanylin (Homo sapiens)): 10 nM
Kd [1]: 1 nM
Substance: Guanylyl cyclase C ECD (from UniProt P25092)
